# Laboratory results published in PMC4303269.
# Biological target: histone octamer
substance,measurement,value
nucleosome assembly protein 1 (yNap1) (from UniProt P25293 1-417) (natural protein),"nucleosome formation fraction (package ratio, 15 min) of tethered 836-bp DNA in single-molecule TPM, 7.5 nM histone octamer pre-incubated with 15 nM yNap1, 150 mM NaCl (87.3 % without chaperone)",70.5%
